{"source": "IntAct's records for PubMed 19258017", "parents": {"B1": {"name": "Cellulose synthase A catalytic subunit 7 [UDP-forming] (Arabidopsis thaliana (Mouse-ear cress)), Q9SWW6 (parent)", "chain": "MEASAGLVAGSHNRNELVVIHNHEEPKPLKNLDGQFCEICGDQIGLTVEGDLFVACNECGFPACRPCYEYERREGTQNCPQCKTRYKRLRGSPRVEGDEDEEDIDDIEYEFNIEHEQDKHKHSAEAMLYGKMSYGRGPEDDENGRFPPVIAGGHSGEFPVGGGYGNGEHGLHKRVHPYPSSEAGSEGGWRERMDDWKLQHGNLGPEPDDDPEMGLIDEARQPLSRKVPIASSKINPYRMVIVARLVILAVFLRYRLLNPVHDALGLWLTSVICEIWFAVSWILDQFPKWFPIERETYLDRLSLRYEREGEPNMLAPVDVFVSTVDPLKEPPLVTSNTVLSILAMDYPVEKISCYVSDDGASMLTFESLSETAEFARKWVPFCKKFSIEPRAPEMYFTLKVDYLQDKVHPTFVKERRAMKREYEEFKVRINAQVAKASKVPLEGWIMQDGTPWPGNNTKDHPGMIQVFLGHSGGFDVEGHELPRLVYVSREKRPGFQHHKKAGAMNALVRVAGVLTNAPFMLNLDCDHYVNNSKAVREAMCFLMDPQIGKKVCYVQFPQRFDGIDTNDRYANRNTVFFDINMKGLDGIQGPVYVGTGCVFKRQALYGYEPPKGPKRPKMISCGCCPCFGRRRKNKKFSKNDMNGDVAALGGAEGDKEHLMSEMNFEKTFGQSSIFVTSTLMEEGGVPPSSSPAVLLKEAIHVISCGYEDKTEWGTELGWIYGSITEDILTGFKMHCRGWRSIYCMPKRPAFKGSAPINLSDRLNQVLRWALGSVEIFFSRHSPLWYGYKGGKLKWLERFAYANTTIYPFTSIPLLAYCILPAICLLTDKFIMPPISTFASLFFISLFMSIIVTGILELRWSGVSIEEWWRNEQFWVIGGISAHLFAVVQGLLKILAGIDTNFTVTSKATDDDDFGELYAFKWTTLLIPPTTVLIINIVGVVAGISDAINNGYQSWGPLFGKLFFSFWVIVHLYPFLKGLMGRQNRTPTIVVIWSVLLASIFSLLWVRIDPFVLKTKGPDTSKCGINC", "partner": "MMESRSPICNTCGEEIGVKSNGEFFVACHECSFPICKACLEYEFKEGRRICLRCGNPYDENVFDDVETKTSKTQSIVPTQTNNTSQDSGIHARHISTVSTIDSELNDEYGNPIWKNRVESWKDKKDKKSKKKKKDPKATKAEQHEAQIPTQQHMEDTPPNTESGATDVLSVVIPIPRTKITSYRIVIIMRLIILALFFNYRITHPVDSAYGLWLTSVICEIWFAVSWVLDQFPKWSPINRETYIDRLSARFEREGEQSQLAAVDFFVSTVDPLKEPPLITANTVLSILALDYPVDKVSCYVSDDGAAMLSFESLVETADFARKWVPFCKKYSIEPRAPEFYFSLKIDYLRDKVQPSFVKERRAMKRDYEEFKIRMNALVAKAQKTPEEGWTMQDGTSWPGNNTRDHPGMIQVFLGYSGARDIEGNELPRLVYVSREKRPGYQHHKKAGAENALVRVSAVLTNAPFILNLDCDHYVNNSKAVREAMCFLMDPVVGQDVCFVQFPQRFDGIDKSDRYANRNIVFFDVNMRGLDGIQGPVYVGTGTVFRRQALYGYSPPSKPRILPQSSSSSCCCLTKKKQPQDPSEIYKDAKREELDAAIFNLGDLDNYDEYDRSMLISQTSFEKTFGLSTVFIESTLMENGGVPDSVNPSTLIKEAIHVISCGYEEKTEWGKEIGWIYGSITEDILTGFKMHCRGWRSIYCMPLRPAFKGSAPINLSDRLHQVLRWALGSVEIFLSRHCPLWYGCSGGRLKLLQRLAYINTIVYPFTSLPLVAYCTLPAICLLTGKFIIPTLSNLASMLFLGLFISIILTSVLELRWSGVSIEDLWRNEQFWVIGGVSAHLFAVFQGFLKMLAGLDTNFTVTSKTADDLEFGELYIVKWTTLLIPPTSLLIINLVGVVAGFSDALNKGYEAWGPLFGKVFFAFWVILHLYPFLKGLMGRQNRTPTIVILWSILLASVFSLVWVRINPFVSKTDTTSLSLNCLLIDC"}, "B2": {"name": "Cellulose synthase A catalytic subunit 7 [UDP-forming] (Arabidopsis thaliana (Mouse-ear cress)), Q9SWW6 (parent)", "chain": "B1 chain", "partner": "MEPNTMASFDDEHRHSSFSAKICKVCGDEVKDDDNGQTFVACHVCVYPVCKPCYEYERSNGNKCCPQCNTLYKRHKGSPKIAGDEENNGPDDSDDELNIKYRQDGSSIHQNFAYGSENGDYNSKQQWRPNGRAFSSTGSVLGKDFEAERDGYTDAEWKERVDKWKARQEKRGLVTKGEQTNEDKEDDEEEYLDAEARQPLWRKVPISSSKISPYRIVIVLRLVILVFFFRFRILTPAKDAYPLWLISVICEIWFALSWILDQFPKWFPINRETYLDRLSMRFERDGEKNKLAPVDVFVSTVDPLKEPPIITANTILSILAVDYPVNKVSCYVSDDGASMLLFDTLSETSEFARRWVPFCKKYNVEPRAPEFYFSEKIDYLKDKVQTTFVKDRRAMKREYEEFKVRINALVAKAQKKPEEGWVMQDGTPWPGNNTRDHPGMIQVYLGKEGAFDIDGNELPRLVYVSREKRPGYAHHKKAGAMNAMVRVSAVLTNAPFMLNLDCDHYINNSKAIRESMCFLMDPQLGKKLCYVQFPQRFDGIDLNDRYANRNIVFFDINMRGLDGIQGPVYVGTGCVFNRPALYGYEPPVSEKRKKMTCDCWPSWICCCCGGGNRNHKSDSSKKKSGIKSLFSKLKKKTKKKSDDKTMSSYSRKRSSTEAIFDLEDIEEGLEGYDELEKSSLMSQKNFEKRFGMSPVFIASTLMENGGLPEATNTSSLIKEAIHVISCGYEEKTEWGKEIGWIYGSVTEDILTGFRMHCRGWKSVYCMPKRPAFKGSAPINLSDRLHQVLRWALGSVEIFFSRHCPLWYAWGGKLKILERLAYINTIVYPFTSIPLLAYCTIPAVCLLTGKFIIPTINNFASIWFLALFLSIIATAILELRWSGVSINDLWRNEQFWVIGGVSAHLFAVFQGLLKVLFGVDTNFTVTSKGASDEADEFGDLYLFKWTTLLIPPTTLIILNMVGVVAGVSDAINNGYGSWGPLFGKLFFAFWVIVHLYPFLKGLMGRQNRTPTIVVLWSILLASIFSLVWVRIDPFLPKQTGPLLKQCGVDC"}}}
{"variants_of": "B1", "conditions": "with cesa8_arath CESA8, Q8LPK5"}
{"variant": "C56A", "effect of a mutation on the interaction": "decreasing interaction"}
{"variants_of": "B1", "conditions": "with cesa8_arath CESA8, Q8LPK5", "remark": "another data set of the same source"}
{"variant": "C64A", "effect of a mutation on the interaction": "decreasing interaction"}
{"variants_of": "B1", "conditions": "with cesa8_arath CESA8, Q8LPK5", "remark": "another data set of the same source"}
{"variant": "C37A", "effect of a mutation on the interaction": "decreasing interaction"}
{"variants_of": "B1", "conditions": "with cesa8_arath CESA8, Q8LPK5", "remark": "another data set of the same source"}
{"variant": "C79A", "effect of a mutation on the interaction": "decreasing interaction"}
{"variants_of": "B2", "conditions": "with cesa4_arath CESA4, Q84JA6"}
{"variant": "C64A", "effect of a mutation on the interaction": "decreasing interaction"}
{"variants_of": "B2", "conditions": "with cesa4_arath CESA4, Q84JA6", "remark": "another data set of the same source"}
{"variant": "C79A", "effect of a mutation on the interaction": "decreasing interaction"}
{"variants_of": "B2", "conditions": "with cesa4_arath CESA4, Q84JA6", "remark": "another data set of the same source"}
{"variant": "C37A", "effect of a mutation on the interaction": "decreasing interaction"}
